These are literature values, as cited in patent US11033606B2, “Composition comprising aflibercept, folinic acid, 5-fluorouracil (5-FU) and irinotecan (FOLFIRI)” (SANOFI, priority 2011, dated 2021).

Data set [1] concerns previously treated patients with metastatic colorectal cancer. To be noted: pre-treated patients with MCRC.
Data set [2] relates to non-small cell lung cancer (NSCLC). To be noted: aflibercept added to docetaxel vs docetaxel plus placebo, second-line NSCLC.

With “aflibercept: fusion protein: VEGFR1 D2 Ig domain fused to VEGFR2 D3 Ig domain, fused to IgG1 Fc domain (SEQ ID No 1)”, the Tolerability result in data set [1] is listed as “well tolerated”. Further, the “Primary endpoint of improvement in overall survival” value in data set [2] is “did not meet the pre-specified criteria”.
